Reference: patent US20190315839A1

Columns and labels:
Experiment in all cases: binding ELISA; OD450 on mutant D2VLP divided by OD450 on original pacD2VLP x100
[1] = molecular target: K310E mutant DENV-2 VLP (Dengue virus serotype 2, strain 16681) (UniProt P29990)
[2] = molecular target: E311R mutant DENV-2 VLP (Dengue virus serotype 2, strain 16681) (UniProt P29990)
[3] = molecular target: W101G mutant DENV-2 VLP (Dengue virus serotype 2, strain 16681) (UniProt P29990)

4G2 (antibody)
Relative binding (%) [1]: 110%
Relative binding (%) [2]: 99.4%
Relative binding (%) [3]: 9%
